The supplement of paper PMC9112550, “Optimization of the antimicrobial peptide Bac7 by deep mutational scanning” (BMC Biology, 2022)

Tested on: Escherichia coli TOP10
Experiment: shrunken log2 fold change of peptide-encoding DNA abundance (4.5 h post-induction vs induction); higher = less antimicrobial activity (less host growth inhibition)
Conditions: time post-induction: 4.5 h; library: site-saturation at positions 5, 18, 19, 20
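Further: peptides expressed intracellularly from a pBAD plasmid library in pooled LB shake-flask culture, induced with 0.3% L-arabinose, DNA abundance read by NGS, three biological replicates, DESeq2 with apeglm shrinkage.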

RRIRTRPPRLPRPRPRPHGNPRP
shrunken log2 fold change: -0.718

RRIRERPPRLPRPRPRPLQIPRP
shrunken log2 fold change: -0.0796

RRIRLRPPRLPRPRPRPRMCPRP
shrunken log2 fold change: -0.0246

RRIRLRPPRLPRPRPRPMTEPRP
shrunken log2 fold change: -0.0455

RRIRNRPPRLPRPRPRPSREPRP
shrunken log2 fold change: -0.103

RRIRWRPPRLPRPRPRPGFRPRP
shrunken log2 fold change: 0.221

RRIRNRPPRLPRPRPRPCHNPRP
shrunken log2 fold change: -0.818

RRIRSRPPRLPRPRPRPYIAPRP
shrunken log2 fold change: -0.917

RRIRTRPPRLPRPRPRPPYDPRP
shrunken log2 fold change: -0.398

RRIRERPPRLPRPRPRPNHKPRP
shrunken log2 fold change: -0.823

RRIRYRPPRLPRPRPRPWVTPRP
shrunken log2 fold change: -0.477

RRIRGRPPRLPRPRPRPIFAPRP
shrunken log2 fold change: 0.609

RRIRLRPPRLPRPRPRPERLPRP
shrunken log2 fold change: 0.466

RRIRHRPPRLPRPRPRPFLIPRP
shrunken log2 fold change: -0.687

RRIRDRPPRLPRPRPRPPPYPRP
shrunken log2 fold change: -0.0814

RRIRWRPPRLPRPRPRPKLAPRP
shrunken log2 fold change: 1.03

RRIRYRPPRLPRPRPRPLPQPRP
shrunken log2 fold change: -0.0827

RRIRRRPPRLPRPRPRPAFQPRP
shrunken log2 fold change: 1.62

RRIRCRPPRLPRPRPRPASLPRP
shrunken log2 fold change: -0.234

RRIRFRPPRLPRPRPRPEEDPRP
shrunken log2 fold change: -0.185

RRIRIRPPRLPRPRPRPVWMPRP
shrunken log2 fold change: 0.11

RRIRARPPRLPRPRPRPHESPRP
shrunken log2 fold change: 0.779

RRIRMRPPRLPRPRPRPHNQPRP
shrunken log2 fold change: 0.177

RRIRERPPRLPRPRPRPERGPRP
shrunken log2 fold change: 0.119

RRIRSRPPRLPRPRPRPGNTPRP
shrunken log2 fold change: -0.472

RRIRVRPPRLPRPRPRPSLIPRP
shrunken log2 fold change: -0.238

RRIRSRPPRLPRPRPRPWWDPRP
shrunken log2 fold change: -0.137

RRIRERPPRLPRPRPRPSSTPRP
shrunken log2 fold change: -0.32

RRIRNRPPRLPRPRPRPLEQPRP
shrunken log2 fold change: -0.166

RRIRFRPPRLPRPRPRPSLDPRP
shrunken log2 fold change: -0.296

RRIRARPPRLPRPRPRPCIAPRP
shrunken log2 fold change: -0.0146

RRIRPRPPRLPRPRPRPHGLPRP
shrunken log2 fold change: 0.026

RRIRVRPPRLPRPRPRPMWWPRP
shrunken log2 fold change: -0.0322

RRIRCRPPRLPRPRPRPFYHPRP
shrunken log2 fold change: -0.668

RRIRCRPPRLPRPRPRPHGQPRP
shrunken log2 fold change: 0.0389

RRIRHRPPRLPRPRPRPGDNPRP
shrunken log2 fold change: -0.0143

RRIRERPPRLPRPRPRPAQQPRP
shrunken log2 fold change: -0.0516

RRIRSRPPRLPRPRPRPDRSPRP
shrunken log2 fold change: -0.0187

RRIRDRPPRLPRPRPRPRIRPRP
shrunken log2 fold change: -0.0469

RRIRWRPPRLPRPRPRPIAVPRP
shrunken log2 fold change: 0.187

RRIRFRPPRLPRPRPRPPDPPRP
shrunken log2 fold change: 0.571

RRIRKRPPRLPRPRPRPREQPRP
shrunken log2 fold change: 0.609

RRIRPRPPRLPRPRPRPGCTPRP
shrunken log2 fold change: 0.104

RRIRMRPPRLPRPRPRPPQWPRP
shrunken log2 fold change: 0.982

RRIRHRPPRLPRPRPRPLDAPRP
shrunken log2 fold change: -0.148

RRIRMRPPRLPRPRPRPLGDPRP
shrunken log2 fold change: 0.364

RRIRHRPPRLPRPRPRPCPKPRP
shrunken log2 fold change: 0.03

RRIRGRPPRLPRPRPRPPYAPRP
shrunken log2 fold change: 0.798

RRIRERPPRLPRPRPRPYLAPRP
shrunken log2 fold change: -0.225

RRIRARPPRLPRPRPRPTVAPRP
shrunken log2 fold change: 0.779

RRIRYRPPRLPRPRPRPRALPRP
shrunken log2 fold change: 0.0114

RRIRLRPPRLPRPRPRPWWAPRP
shrunken log2 fold change: 0.0811

RRIRDRPPRLPRPRPRPAMLPRP
shrunken log2 fold change: 0.278

RRIRSRPPRLPRPRPRPSLHPRP
shrunken log2 fold change: -0.385

RRIRARPPRLPRPRPRPMPSPRP
shrunken log2 fold change: 0.341

RRIRYRPPRLPRPRPRPFWMPRP
shrunken log2 fold change: -0.297

RRIRNRPPRLPRPRPRPWPIPRP
shrunken log2 fold change: -0.0597

RRIRHRPPRLPRPRPRPHRDPRP
shrunken log2 fold change: -0.263

RRIRDRPPRLPRPRPRPHAHPRP
shrunken log2 fold change: 0.0605

RRIRIRPPRLPRPRPRPQTKPRP
shrunken log2 fold change: 0.13
